Laboratory results from patent publication US10975360B2, “Process for the modification of alkanes, fatty acids and fatty alcohols” (priority 2016, dated 2021).

B1: CYP505An: CYP505 cytochrome P450 monooxygenase from Aspergillus niger, SEQ ID No 5 (protein)
chain: MKDAERIPGPKPLPVVGNLLDIDPEHGLQSIIAFADKYGPLFQITINGEKQIFATSQALVDELCDESRFHKAVVTGLEVLRLLAHDGLFTAYHGERGWGIAHRILVPAFGPLRIRNMLDDMSDVAQQLCLKWARQGGSTSINITEDFTRLTLDTIALCTMGFRLNSFYNNETMHPFVQSMLYVLKEADVQANLPGIANSIRVSAQRRMHKNIEAMRTMARGIIQERRKNKNPVDDILNTLLNGRDPVTGEGMSDDSIIDNVITFLIAGHETTSGLLSFTFYFLIQHPHILKKAQEEVDETVGLAQISAQHLAELPYIDAILKESLRLMPTAPGFAVTPKKTEVLGGKWMINAGQPVNVLLPACLRDQSVFGPDADEFHPERMLAENFSKLPPNSWKPFGNGERGCIGRAFAWQEAQLVVAMILQTFDLVPDDPSYQLRIKETLTIKPDGFRIRALLRRGQTATGLSRRSMLVARDGSSGESSNHLAEARGDHAPARGQPVSFFYGSNSGTCKALAHQLASNMMSRGYTTQKLAPLDNAVGNLPRDQPVIILTTTYDGQPTDDAKKFVAWLETGNVPSLQGISYAVFGCGHHDWTQTFYRIPILIDDLMHKAGATRLAPRGAANAAVSDLFSDLEAWEETSLLPALRENFLPSNSTDFDPLNPHQIQLSLSKPRRVDLHKGLIEAKVTAVRVLTSPDTPEKRHLEFCFQGDTSLRPGDHLNILPVNPPSTVSRVLAQFNLAPDYNITVNSFNTLGLPQATPVSASELFSSYVELCQPATRNNLKALIAATQSDPDKQELNRLYDSYEFIVRDKRVSVLDLLEQFPSISLPIAAFISMLPALRVRTYSLSMAPSFKPSHSSLTFSVINEPAWRGSGQHLGVASNYLASLTSGSIFYFSPRPAKESFHLPKDPSNTPIIMICAGSGLAPFLSFIQDRMVLKQQYKPLAKAFLFFGCRGRSLDDLYHEELSEFEAAGVVEIRRAYSKTPDFDIAKGCRYVQHRLVTEGQAILSLWSQNATIYVCGSTNMAKGVEAVLQNMLGPLPKERYVTEIF
modifications: Aspergillus niger
B2: CYP505A1: known sub-terminal fatty acid hydroxylase of medium chain fatty acids from Fusarium oxysporum, Seq ID No 8 (protein, listed as Fusarium oxysporum)
chain: MAESVPIPEPPGYPLIGNLGEFTSNPLSDLNRLADTYGPIFRLRLGAKAPIFVSSNSLINEVCDEKRFKKTLKSVLSQVREGVHDGLFTAFEDEPNWGKAHRILVPAFGPLSIRGMFPEMHDIATQLCMKFARHGPRTPIDTSDNFTRLALDTLALCAMDFRFYSYYKEELHPFIEAMGDFLTESGNRNRRPPFAPNFLYRAANEKFYGDIALMKSVADEVVAARKASPSDRKDLLAAMLNGVDPQTGEKLSDENITNQLITFLIAGHETTSGTLSFAMYQLLKNPEAYSKVQKEVDEVVGRGPVLVEHLTKLPYISAVLRETLRLNSPITAFGLEAIDDTFLGGKYLVKKGEIVTALLSRGHVDPVVYGNDADKFIPERMLDDEFARLNKEYPNCWKPFGNGKRACIGRPFAWQESLLAMVVLFQNFNFTMTDPNYALEIKQTLTIKPDHFYINATLRHGMTPTELEHVLAGNGATSSSTHNIKAAANLDAKAGSGKPMAIFYGSNSGTCEALANRLASDAPSHGFSATTVGPLDQAKQNLPEDRPVVIVTASYEGQPPSNAAHFIKWMEDLDGNDMEKVSYAVFACGHHDWVETFHRIPKLVDSTLEKRGGTRLVPMGSADAATSDMFSDFEAWEDIVLWPGLKEKYKISDEESGGQKGLLVEVSTPRKTSLRQDVEEALVVAEKTLTKSGPAKKHIEIQLPSAMTYKAGDYLAILPLNPKSTVARVFRRFSLAWDSFLKIQSEGPTTLPTNVAISAFDVFSAYVELSQPATKRNILALAEATEDKDTIQELERLAGDAYQAEISPKRVSVLDLLEKFPAVALPISSYLAMLPPMRVRQYSISSSPFADPSKLTLTYSLLDAPSLSGQGRHVGVATNFLSHLTAGDKLHVSVRASSEAFHLPSDAEKTPIICVAAGTGLAPLRGFIQERAAMLAAGRTLAPALLFFGCRNPEIDDLYAEEFERWEKMGAVDVRRAYSRATDKSEGCKYVQDRVYHDRADVFKVWDQGAKVFICGSREIGKAVEDVCVRLAIEKAQQNGRDVTEEMARAWFERSRNERFATDVFD

Tests used:
[1] = Biotransformation of dodecanoic acid to δ-dodecalactone by CYP505An expressed in Pichia pastoris; assay type: cell-based; conditions: 10 mM fatty acid, 12 h, acidified
Experimental: (§1) A transformant of Pichia pastoris KM71 harbouring the gene encoding CYP505An (SEQ ID No 5) was grown and harvested as described above. The harvested cells were resuspended 1 g in 40 ml of MOPS (200 mM, 100 mM glucose, 100 mM glycerol, pH 8) buffer and 12.5 ml was transferred to each of two 500 ml Erlenmeyer flask. One flask was supplemented with 250 μl of a 500 mM dodecanoic acid stock solution (in DMSO) and the other flask with 250 μl of a 500 mM tetradecanoic acid stock solution (in DMSO) to give in each case a final concentration of 10 mM of the fatty acid. The flasks were incubated at 25° C. and 180 rpm for 12 h. Samples (800 μl) were withdrawn after 12 h and 136 μl of 5 M HCl added. These samples were stored for 5-6 h at room temperature to convert hydroxy fatty acids to the lactone. These were then extracted with ethyl acetate (2×800 μl).

[2] = Biotransformation of tetradecanoic acid to δ-dodecalactone by CYP505An expressed in Pichia pastoris; assay type: cell-based; conditions: 10 mM fatty acid, 12 h, acidified; via β-oxidation
Experimental: as §1

[3] = Biotransformation of 1-tetradecanol using CFE of E. coli, Tris-HCl buffer; assay type: biochemical; conditions: C14 alcohol; CYP505A1 only tested in CFEs of E. coli
Experimental: (§2) Expression of genes in E. coli was performed by using ZYP-5052 auto-induction medium (Table 1) with in the case of the CYP 1 mM 5-aminolevulinic acid and 0.05 mM FeCl3 added. The CYP505E3 culture was cultivated using baffled flasks and incubated at 20° C. and 180 rpm for 24 h, while the GDH, and HLADH expressing cultures were all cultivated at 25° C. and 200 rpm for 24 h. Cultures were harvested through centrifugation (6 000×g, 10 min) and 1 g (wet weight) resuspended in 2 ml, 5 ml or 10 ml Tris-HCl, Phosphate or MOPS buffer, as indicated, (pH 8, 200 mM) containing 100 mM of glucose and glycerol. CFEs were obtained by a single passage of the suspended cells through a One Shot Cell Disrupter (Constant Systems) at 207 MPa. The soluble fraction was separated from unbroken cells by centrifugation (20 000×g, 20 min).
The biotransformation reaction mixture (BRM) consisted of CYP and GDH CFE suspensions prepared from cells in Tris-HCl buffers (1 g wet weight in 2 ml buffer) mixed in a 1:1 ratio with 0.1 mM NADPH added. Dodecanoic acid, tetradecanoic acid, hexadecanoic acid, 1-tetradecanol and 1-hexadecanol (20 μl of a 255 mM stock solution in DMSO) were added to 40 ml amber glass vials containing 1 ml BRM to give final substrate concentrations of 5 mmol·LBRM^−1. These vials were placed on an orbital shaker at 20° C., 200 rpm, oscillation amplitude 26 mm. […]

[4] = Biotransformation of tetradecanoic acid using CFE of E. coli, Tris-HCl buffer; assay type: biochemical
Experimental: as §2
(§3) The biotransformation reaction mixture (BRM) consisted of CYP and GDH CFE suspensions prepared from cells in Tris-HCl buffers (1 g wet weight in 2 ml buffer) mixed in a 1:1 ratio with 0.1 mM NADPH added. Dodecanoic acid, tetradecanoic acid, hexadecanoic acid, 1-tetradecanol and 1-hexadecanol (20 μl of a 255 mM stock solution in DMSO) were added to 40 ml amber glass vials containing 1 ml BRM to give final substrate concentrations of 5 mmol·LBRM^−1. These vials were placed on an orbital shaker at 20° C., 200 rpm, oscillation amplitude 26 mm. Vials were removed after 24 h for extraction. Biotransformations were stopped by adding 170 ul of 0.5M HCl, extracted with 2×500 μl EtOAc and subjected to GC-MS analysis. A sample of δ-dodecalactone in ethyl acetate (0.1 mM) was also methylated with TMSH and subjected to GC-MS analysis.

[5] = Biotransformation of dodecanoic acid using CFE of E. coli, Tris-HCl buffer; assay type: biochemical; conditions: C12 fatty acid; CYP505A1 only tested in CFEs of E. coli
Experimental: as §2, §3

[6] = Biotransformation of hexadecanoic acid using CFE of E. coli, Tris-HCl buffer; assay type: biochemical
Experimental: as §2, §3

[7] = C14 fatty acid, CYP505A1 only tested in CFEs of E. coli
[8] = C16 fatty acid, GC-MS peak height

Row | Molecule | δ-dodecalactone production from dodecanoic acid [1] | δ-dodecalactone production from tetradecanoic acid [2] | ω-7 hydroxylase activity C14o [3] | products identified from tetradecanoic acid (GC-MS, methylated samples) ([4]; 5 mmol/L substrate, CFE of E. coli, Tris-HCl, 24 h) | other hydroxylase activities (in brackets) C14FA [4, 7] | ω-7 hydroxylase activity C14FA [4, 7] | other hydroxylase activities (in brackets) C12FA [5] | ω-7 hydroxylase activity C12FA [5] | products identified from hexadecanoic acid (GC-MS, methylated samples) ([6]; 5 mmol/L substrate, Tris-HCl, 24 h) | other hydroxylase activities (in brackets) C16FA [6, 8] | ω-7 hydroxylase activity C16FA [6, 8]
1 | B1 | δ-dodecalactone was produced | δ-dodecalactone was produced |  |  |  |  |  |  |  |  | 
2 | B2 |  |  | − | only sub-terminally hydroxylated products | (++) (++ 0.1 million < RA < 1 million) | − | (+++) (+++ 1 million < RA < 10 million) | − | only sub-terminally hydroxylated products | (++) (++ 0.1 million < RA < 1 million) | −
